Experimental data as given in the RNAGym collection of RNA variant scans (doi:10.1073/pnas.2313332121).

B1: TPR t1 (parent)
chain: GACCAAUCUGCCCUCAGAGCUCGAGAACAUCUUCGGAUGCAGAGGAGGCAGGCUUCGGUGGCGCGAUAGCGCCAACGUCCUCAACCUCCAAUGCAUCCCACCACAUGAUGAUGCCUGAAGAGCCUUGGUUUUUUG

Variants of: B1
Test: polymerase ribozyme fitness, log enrichment relative to wild type (log ratio); higher = more active; in vitro selection for triplet polymerase activity
How it was run: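 Fitness measures genotype enrichment against wild-type enrichment on a logarithmic scale, with inverse-variance-weighted averaging of replicates. The logarithm is base 2, and genotypes were kept only with ≥10 input reads and ≥1 read per output in Illumina sequencing. The sequenced libraries came from one triplicate in vitro selection round, including frozen incubation at −7 °C, of PCR-built, transcribed mutant libraries of each subunit of a heterodimeric triplet polymerase ribozyme.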

Point of comparison: GACCAAUCUGCCCUCAGAGCUCGAGAACAUCUUCGGAUGCAGAGGAGGCAGGCUUCGGUUGCGCGAUAGCGCCAACGUCCUCAACCUCCAAUGCAUCCCACCACAUGAUCAUGCCUGAAGAGUCUUGGUUUUUUG [G60U G110C C123U], “polymerase ribozyme fitness (log ratio)” value -5.58. Against it:
- GACCAAUCUGCCCUCAGAGCUCGAGAACAUCUUCGGAUGCAGAGGAGGCAGGCUUCGGUUGCUCGAUAGCGCCAACGUCCUCAACCUCCAAUGCAUCCUAGCACAUGAUGAUGCGUGAAGAUCGUUGGUUUUUUG [G60U G63U C99U C101G C115G G122U C124G] — lower, -6.39
- GACCAAUCUGCCCUCAGAGCUCGAGAACAUCUUCGGAUGCAGAGGAGGCAGGCUUCGGUUACGCGAUAGCGCCAACGUCCUCAACCUCCAAUGCAUCCCACCACAUGAUGAUGCCUGAAGAGCCUUGGUUUUUUG [G60U G61A] — higher, -0.341
- GACCAAUCUGCCCUCAGAGCUCGAGAACAUCUUCGGAUGCAGAGGAGGCAGGCUUCGGUUUCGCGAUAGCGCCAACGUCCUCAACCUCCAAUGCAUCCCACCACAUGAUGAUGCCUGAAGAGCCUUGGUUUUUUG [G60U G61U] — higher, -1.93
- GACCAAUCUGCCCUCAGAGCUCGAGAACAUCUUCGGAUGCAGAGGAGGCAGGCUUCGGUUGCGCGAUAGCGCCAACGUCCUCAACCUCCAAUGCAUCCCACCACAUGAUGAUGCCUGAAAAGCCUAGGUUUUUUG [G60U G120A U126A] — higher, -0.262
- GACCAAUCUGCCCUCAGAGCUCGAGAACAUCUUCGGAUGCAGAGGAGGCAGGCUUCGGUUGCUCGAUAGCGCCAACGUCCUCAACCUCCAAUGCAUCCCACCACAUGAUGAUGCCUGAAGAGCCUUGGUUUUUUG [G60U G63U] — higher, -4.69
- GACCAAUCUGCCCUCAGAGCUCGAGAACAUCUUCGGAUGCAGAGGAGGCAGGCUUCGGUUGCACGAUAGCGCCAACGUCCUCAACCUCCAAUGCAUCCCACCACAUGAUGAUGCCUGAAGAGCCUUGGUUUUUUG [G60U G63A] — higher, -4.69
- GACCAAUCUGCCCUCAGAGCUCGAGAACAUCUUCGGAUGCAGAGGAGGCAGGCUUCGGUUACGCGAUAGCGCCAACGGCCUCAUCAUCCAAUGCAUCCCACCACAUGAUGAUGCCUGAAGAGCCUUGGUUUUUUG [G60U G61A U78G A84U C86A] — higher, -3.37
- GACCAAUCUGCCCUCAGAGCUCGAGAACAUCUUCGGAUGCAGAGGAGGCAGGCUUCGGUUGCGCGAUAGCGCCAACGUCCUCAACCUCCAAUGCAUCCCACCACAUAAUGAUGCCUGAAGAGCCUUGGUUUUUUG [G60U G107A] — higher, -3.31
- GACCAAUCUGCCCUCAGAGCUCGAGAACAUCUUCGGAUGCAGAGGAGGCAGGCUUCGGUUGCGCGAUAGCGCCAACGUCCUCAACCUCCAAUUCAUCCCACCACAUGAUGAUGCCUGAAGAGCCUUGGUUUUUUG [G60U G93U] — higher, -1.03
- GACCAAUCUGCCCUCAGAGCUCGAGAACAUCUUCGGAUGCAGAGGAGGCAGGCUUCGGUUGCGCGAUAGCACCAACGUCCUCAACCUCCAAGGCAUCCCACCACAUGAUGAUGCCUGAAGAGACUUGGUUUUUUG [G60U G71A U92G C123A] — lower, -6.18
- GACCAAUCUGCCCUCAGAGCUCGAGAACAUCUUCGGAUGCAGAGGAGGCAGGCUUCGGUUGCGCGAUAGCGCCAACGUCCUCAACCUCCAAUGCAUCCCACCACAUGAUGAUGCCUGAAGAGCCUUAGUUUUUUG [G60U G127A] — higher, -0.768
- GACCAAUCUGCCCUCAGAGCUCGAGAACAUCUUCGGAUGCAGAGGAGGCAGGCUUCGGUUGCGCGAUAGCGCCAACAUCCUCAACCUCCAAUGCAUCCCACCACAUGAUGAUGCCUGAAGAGCCUUGGUUAUUUG [G60U G77A U131A] — higher, -0.885
- GACCAAUCUGCCCUCAGAGCUCGAGAACAUCUUCGGAUGCAGAGGAGGCAGGCUUCGGUUGCGCGAUAGCGCCAACGUCCUCAACCUCCAAUGCAUCCCACCACAUGAUGAUGCCUGAAGAGGUUUGGUUUUUUG [G60U C123G C124U] — higher, 2.24
- GACCAAUCUGCCCUCAGAGCUCGAGAACAUCUUCGGAUGCAGAGGAGGCAGGCUUCGGUUGCGCGAUAGCGCCAACGUCCUCAACCUCCAAUGCAUCCCACCACAUGAUGAUACCUGAAGAGCCUUGGUUUUUUG [G60U G113A] — higher, -0.847
- GACCAAUCUGCCCUCAGAGCUCGAGAACAUCUUCGGAUGCAGAGGAGGCAGGCUUCGGUUGCGCGAUAGCGCCAACGUCCUCAACCUCCAAUGCAUCCCACCACAUGAUGAUUCCUGAAGAGCCUUGGUUUUUUG [G60U G113U] — higher, -2.04
- GACCAAUCUGCCCUCAGAGCUCGAGAACAUCUUCGGAUGCAGAGGAGGCAGGCUUCGGUUGCGCGAUAGCUCCAACGUCCUCAACCUCCAAUGCAUCCCACCACAUGAUGAUGCCUGAAGAGCCUUGGUUUUUUG [G60U G71U] — higher, -1.98
- GACCAAUCUGCCCUCAGAGCUCGAGAACAUCUUCGGAUGCAGAGGAGGCAGGCUUCGGUUGCGCGAUAGCCCCAACGUCCUCAACCUCCAAUGCAUCCCACCACAUGAUGAUGCCUGAAGAGCCUUGGUUUUUUG [G60U G71C] — higher, -3.38
- GACCAAUCUGCCCUCAGAGCUCGAGAACAUCUUCGGAUGCAGAGGAGGCAGGCUUCGGUUGCGCGAUAGCGCCAACGUCCUCAACCUCCAAUACAUCCCACCACCUGAUGAUGCCUGAAGAGCCUUGGUUUUUUG [G60U G93A A105C] — higher, -3.53
- GACCAAUCUGCCCUCAGAGCUCGAGAACAUCUUCGGAUGCAGAGGAGGCAGGCUUCGGUUGCGCGAUAGCGCCAACGUCCUCAACCUCCAAUGCAUCCCACCACAUGAUGAUGCCUGAACAGCCUUGGUUUUUUG [G60U G120C] — higher, 1.43
- GACCAAUCUGCCCUCAGAGCUCGAGAACAUCUUCGGAUGCAGAGGAGGCAGGCUUCGGUUACGCGAUAGCGCCAACGUCCUCAACCUCCAUUGCAUCCCACCACAUGAUGAUGCCUGAAGAGCCUUGGUUUUUUG [G60U G61A A91U] — higher, -2.61
